In publication PMC2605266 (2008):

Experiments:
[1] = target: GST-VAMP2 harbouring only the SNARE motif (VAMP2 lacking the first 30 amino acids) (Rattus norvegicus (Rat), UniProt P63045); experiment: GST pull-down, immunoblot
[2] = target: GST fused to the cytosolic domain of VAMP2 (Rattus norvegicus (Rat), UniProt P63045); experiment: GST pull-down, immunoblot
Chain of GST fused to the cytosolic domain of VAMP2 (P63045 1-92): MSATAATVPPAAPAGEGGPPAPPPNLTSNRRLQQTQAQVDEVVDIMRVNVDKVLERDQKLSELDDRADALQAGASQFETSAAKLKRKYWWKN

Chain of GST-VAMP2 harbouring only the SNARE motif (VAMP2 lacking the first 30 amino acids) (P63045 31-92): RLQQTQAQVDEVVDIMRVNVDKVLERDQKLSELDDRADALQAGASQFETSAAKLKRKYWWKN

- binding result [1]: binds
- binding result [2]: binds
B1: Munc18c, N-terminal His6-fusion protein (protein)
chain: MAPPVSERGLKSVVWRKIKTAVFDDCRKEGEWKIMLLDEFTTKLLSSCCKMTDLLEEGITVIENIYKNREPVRQMKALYFISPTPKSVDCFLRDFGSKSEKKYKAAYIYFTDFCPDSLFNKIKASCSKSIRRCKEINISFIPQESQVYTLDVPDAFYYCYSPDPSNASRKEVVMEAMAEQIVTVCATLDENPGVRYKSKPLDNASKLAQLVEKKLEDYYKIDEKGLIKGKTQSQLLIIDRGFDPVSTVLHELTFQAMAYDLLPIENDTYKYKTDGKEKEAVLEEDDDLWVRVRHRHIAVVLEEIPKLMKEISSTKKATEGKTSLSALTQLMKKMPHFRKQISKQVVHLNLAEDCMNKFKLNIEKLCKTEQDLALGTDAEGQRVKDSMLVLLPVLLNKNHDNCDKIRAVLLYIFGINGTTEENLDRLIHNVKIEDDSDMIRNWSHLGVPIVPPSQQAKPLRKDRSAEETFQLSRWTPFIKDIMEDAIDNRLDSKEWPYCSRCPAVWNGSGAVSARQKPRTNYLELDRKNGSRLIIFVIGGITYSEMRCAYEVSQAHKSCEVIIGSTHILTPRKLLDDIKMLNKSKDKVSFKDE
